Reference: JP2024051908A (dated 2024)

B1: MO2 (antibody, V domains shown)
VH: EVQLVESGGGLVKPGGSLSLSCVASGFTFSDYRMSWIRQAPGKGLEWVSYISSSSGYKDYADSVKGRFTISRDNAKNSLSLQMNSLRVEDTAVYYCARDVGVVTATPGYWGQGVPVSVSS
VL: DIVMTQSPATLSVSPGERATLSCRASQSVGSNLAWYQQKPGQAPRLLIYDTSTRATGVPARFSGSGSGTDFTLTISSLQSEDFAVYLCHQYDQWPPAFGPGTRVDIK
B2: MO1 (antibody, V domains shown)
VH: EVQLVESGGGMVQPGRSLRLSCAASGFTFDDYAMHWVRQIPGKGLEWVSGISWNSGDIGYADSVKGRFTISRDNAKNSLHLQMNSLRAEDTALYYCAKDKTYDSPGYFLNSFDYWGQGTLVTVSS
VL: DIQMTQSPSSLSASVGDRVTITCRASQGISSYLVWYQQKPGKAPKFLIYAASTLQSGVPSRFSGSGSGTDFTLTISSLQPEDFATYYCQQLYSYPITFGQGTRLEIK

Key:
Test in all cases: cell-based or functional assay
[1] = target: SARS-CoV-2 オミクロンBA.2変異株のスパイクタンパク質 (authentic virus) (SARS-CoV-2 Omicron BA.2)
[2] = target: SARS-CoV-2 オミクロンBA.1変異株のスパイクタンパク質 (authentic virus) (SARS-CoV-2 Omicron BA.1)
[3] = target: SARS-CoV-2 Delta変異株のスパイクタンパク質 (authentic virus) (SARS-CoV-2 Delta)
[4] = target: SARS-CoV-2 D614G変異株のスパイクタンパク質 (authentic virus) (SARS-CoV-2 D614G, UniProt P0DTC2 14-1273)
[5] = target: SARS-CoV-2 オミクロンBA.1.1変異株のスパイクタンパク質 (authentic virus) (SARS-CoV-2 Omicron BA.1.1)
[6] = target: SARS-CoV-2 オミクロンBA.5変異株のスパイクタンパク質 (authentic virus) (SARS-CoV-2 Omicron BA.5)

Binder | IC50, プラーク減少中和試験 (PRNT) [1] | IC50, プラーク減少中和試験 (PRNT) [2] | IC50, プラーク減少中和試験 (PRNT) [3] | IC50, プラーク減少中和試験 (PRNT) [4] | IC50, プラーク減少中和試験 (PRNT) [5] | IC50, プラーク減少中和試験 (PRNT) [6]
B1 | 0.151 µg/mL | 0.0177 µg/mL | 0.0882 µg/mL | 0.0658 µg/mL | 0.036 µg/mL | 
B2 | 0.0203 µg/mL | 0.004 µg/mL | 0.0158 µg/mL | 0.0236 µg/mL | 0.0106 µg/mL | 0.0157 µg/mL
